This is an account of results in PMC6066219 (PLoS ONE, 2018).

The format of series [1] is physicochemical. As to the method: To determine the distribution of the ^68Ga-radiolabelled conjugates between an organic and aqueous layer aliquots (50 μL) of the tracers (10 μM) were diluted in 450 μL PBS and after adding 500 μL octanol the mixture was vortexed at 1400 rpm (MS 3 basic vortexer, IKA, Staufen, Germany) for 15 min at RT followed by centrifugation for 2 min at 4500 rpm. Subsequently, aliquots (100 μL) of both layers were collected and measured in the gamma counter (Wizard2 3”, Perkin Elmer, Waltham, MA, USA) followed by logD calculation using Excel (n = 3, six replicates).

In a further series the target is T1, CCK2 receptor (Homo sapiens, UniProt P32239).
T1 construct: expressed in transfected cells; host or cells: A431 human epidermoid carcinoma cells (A431-CCK2R), gift from Dr. L. Aloj
T1 sequence (P32239 1-447): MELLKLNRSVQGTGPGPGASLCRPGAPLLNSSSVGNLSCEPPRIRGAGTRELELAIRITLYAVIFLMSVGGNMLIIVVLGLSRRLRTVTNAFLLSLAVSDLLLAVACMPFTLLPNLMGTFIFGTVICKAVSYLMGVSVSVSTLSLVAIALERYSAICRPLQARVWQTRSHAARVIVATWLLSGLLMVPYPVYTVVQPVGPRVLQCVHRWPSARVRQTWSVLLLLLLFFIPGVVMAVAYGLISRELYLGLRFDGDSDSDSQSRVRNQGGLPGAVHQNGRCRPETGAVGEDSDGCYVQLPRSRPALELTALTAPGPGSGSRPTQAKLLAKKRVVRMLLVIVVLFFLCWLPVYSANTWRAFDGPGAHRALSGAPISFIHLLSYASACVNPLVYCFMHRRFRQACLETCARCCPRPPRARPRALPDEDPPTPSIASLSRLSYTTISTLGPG
The experiment in a line: Receptor binding affinity studies (IC50) on whole A431-CCK2R cells vs 125I-[Leu15]-gastrin I. To be noted: natGa-labelled competitor, 125I-[Leu15]-Gastrin radioligand. The procedure:
Binding affinity studies on whole A431-CCK2R cells were performed as previously described. Briefly, 100 μL of cell suspension (5 × 10^6 cells/mL) was added to each well of a 96-well MultiScreen Filter Plate HTS (1 μm glass fiber filter, Merck Millipore, Darmstadt, Germany). Hereafter competitor solution was added with increasing concentrations [0.001−1.000 nM] and after 10 min at RT human [Leu^15]-gastrin I radiolabelled with iodine-125 as described in [16] was added (4.5 × 10^4 cpm) and the plate was maintained under shaking conditions (Compact shaker KS-15 control, 200/min) at ambient temperature. After 1 h each well was washed twice with 200 μL TRIS-buffered saline (pH 7.3), filters were collected and measured in the gamma counter followed by nonlinear curve fitting with Origin 6.1 software (Northampton, MA, USA) to calculate the IC50 values.

Starred links: 1 amine or outer side, 2 acyl side, 3 side chain; linkers in the order of their positions; H or OH if unused. Positions of bridges follow the written chain, without caps; N, C: chain ends. Non-standard residues stand in square brackets, D forms with d. Residues, ends and D or L forms follow the SMILES beside them. Chains are numbered I, II in the order given. X1 = CC1=CC(=O)N(O)CCCC(NC(=O)CCN2C(=O)CC([*:3])C2=O)C(=O)OCCC(C)=CC(=O)N(O)CCCC(NC(=O)CCN2C(=O)CC([*:2])C2=O)C(=O)OCCC(C)=CC(=O)N(O)CCCC(NC(=O)CCN2C(=O)CC([*:1])C2=O)C(=O)OCC1; Nle = CCCC[C@H](N)C(=O)O; Mpa = O=C(O)CCS

The IC50 is the point on the concentration scale where inhibition reaches its midpoint. In the case of `CCCC[C@H](NC(=O)[C@H](Cc1c[nH]c2ccccc12)NC(=O)CNC(=O)[C@H](Cc1ccc(O)cc1)NC(=O)[C@H](C)NC(=O)[C@@H](CCC(=O)O)NC(=O)CCSC1CC(=O)N(CCC(=O)NC2CCCN(O)C(=O)C=C(C)CCOC(=O)C(NC(=O)CCN3C(=O)CC(SCCC(=O)N[C@H](CCC(=O)O)C(=O)N[C@@H](C)C(=O)N[C@@H](Cc4ccc(O)cc4)C(=O)NCC(=O)N[C@@H](Cc4c[nH]c5ccccc45)C(=O)N[C@@H](CCCC)C(=O)N[C@@H](CC(=O)O)C(=O)N[C@@H](Cc4ccccc4)C(N)=O)C3=O)CCCN(O)C(=O)C=C(C)CCOC(=O)C(NC(=O)CCN3C(=O)CC(SCCC(=O)N[C@H](CCC(=O)O)C(=O)N[C@@H](C)C(=O)N[C@@H](Cc4ccc(O)cc4)C(=O)NCC(=O)N[C@@H](Cc4c[nH]c5ccccc45)C(=O)N[C@@H](CCCC)C(=O)N[C@@H](CC(=O)O)C(=O)N[C@@H](Cc4ccccc4)C(N)=O)C3=O)CCCN(O)C(=O)C=C(C)CCOC2=O)C1=O)C(=O)N[C@@H](CC(=O)O)C(=O)N[C@@H](Cc1ccccc1)C(N)=O` (some centres unmarked) [Trimer-Nle] (I: [Mpa][dE]AYGW[Nle]DF-NH2 / II: [Mpa][dE]AYGW[Nle]DF-NH2 / III: [Mpa][dE]AYGW[Nle]DF-NH2; linker I:1-II:1-III:1 via X1), the “Distribution coefficient logD (pH 7.4)” value in series [1] is recorded as -1.80 ± 0.16. Also, the IC50 on CCK2 receptor stood at 0.0209 ± 0.00113 µM.
